From US20160068865

What was measured:
[1] = test system: ZFN 17749 (IgM) (synthetic); assay: cell_activity; settings: pair 17747/17749, CMV promoter, C6 chromosomes cleaved (about 1% with CAG); 5 of 43 rats modified
[2] = test system: ZFN 17747 (IgM) (synthetic); assay: cell_activity; settings: pair 17747/17749, CMV promoter, C6 chromosomes cleaved (about 1% with CAG); 5 of 43 rats modified

Sequence	activity [1]	activity [2]
AGACAGGGGGCTCTC (double strand) [IgM target of 17749]	3%	
AATTTGGTGGCCATGGGC (double strand) [IgM target of 17747]		3%
